Data from IntAct's records for PubMed 16830178.

B1: Protein GRIP (Arabidopsis thaliana (Mouse-ear cress)), Q8S2T0 (parent)
chain: MSEDKESDVVGEEEESHVIKEDKELNDASNETLTENGDQLLQMIAELRLENDFLRSQFEGLKDEVAQGRSLQKAEQVEADSAQLKQLQEQVASLSREIDVEKQTRVAAEQALEHLREAYSEADAKSQEYSSKFSQVEQKLDQEIKERDEKYADLDAKFTRLHKRAKQRIQEIQKEKDDLDARFREVNETAERASSQHSSMQQELERTRQQANEALKAMDAERQQLRSANNKLRDTIEELRGSLQPKENKIETLQQSLLDKDQILEDLKKQLQAVEERKQIAVTELSAKHQKNLEGLEAQVVDALSERDKAAETISSLQVLLAEKESKIAEMEAAATGEAARLRAAAETLKGELAHLKSENEKEKETWEASCDALKSKLEIAESNYLQAEIEVAKMRSQLGSEMSMQTQILSTKDAELKGAREEINRLQSEFSSYKIRAHALLQKKDMELAAAKDSEQIKSLEEALKEAEKEVYLVSAERDRAQQDLQSALASLEKELEERAGALKDASEQIKSLEVKLDSTVARNQAEKQAWEEDLRVLEETWRRRCEALTAQNEASPAEGIEKELENAKLRNKRMKEEHESVRELADRLIEEKDREISRLVDEMTNLRKSMESKPVWNKSPSQVHHYGNNNTESQQQDVSNLSTSAAEHQILILARQQAQREEELAQTQRHILALQEEIEELERENRLHSQQEAVLKTELREMERKQKREGVDMTYLKNVILKLLETGEVEALLPVVGMLLQFSPEEIQKCQQAYHSSTTAATTTEATPSPASEGSGLSVFSRFSFS
partner: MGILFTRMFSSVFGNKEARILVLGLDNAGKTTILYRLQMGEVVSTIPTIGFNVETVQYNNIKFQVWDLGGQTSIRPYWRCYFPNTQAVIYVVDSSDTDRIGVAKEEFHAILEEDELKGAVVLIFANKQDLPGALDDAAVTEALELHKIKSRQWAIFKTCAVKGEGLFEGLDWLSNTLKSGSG
B2: ADP-ribosylation factor 3 (Arabidopsis thaliana (Mouse-ear cress)), P40940 (parent)
chain: B1 partner
partner: B1 chain

Variants of: B1
Conditions: with arf3_arath ARF3, P40940

Variant	effect of a mutation on the interaction
K719A	decreasing interaction
Y717A	decreasing interaction

Variants of: B2
Conditions: with grip_arath GRIP, Q8S2T0

Variant	effect of a mutation on the interaction
MGILFTRMFSSVFGNKEARILVLGLDNAGKTTILYRLQMGEVVSTIPTIGFNVETVQYNNIKFQVWDLGGQTSIRPYWRCGFPNTQAVIYVVDSSDTDRIGVAKEEFHAILEEDELKGAVVLIFANKQDLPGALDDAAVTEALELHKIKSRQWAIFKTCAVKGEGLFEGLDWLSNTLKSGSG [Y81G]	decreasing interaction
MGILFTRMFSSVFGNKEARILVLGLDNAGKTTILYRLQMGEVVSTIPTIGGNVETVQYNNIKFQVWDLGGQTSIRPYWRCYFPNTQAVIYVVDSSDTDRIGVAKEEFHAILEEDELKGAVVLIFANKQDLPGALDDAAVTEALELHKIKSRQWAIFKTCAVKGEGLFEGLDWLSNTLKSGSG [F51G]	decreasing interaction

Variants of: B2
Conditions: with grip_arath GRIP

Variant	effect of a mutation on the interaction
MGILFTRMFSSVFGNKEARILVLGLDNAGKTTILYRLQMGEVVSTIPTIGFNVETVQYNNIKFQVWDLGGQTSIRPYWRCGFPNTQAVIYVVDSSDTDRIGVAKEEFHAILEEDELKGAVVLIFANKQDLPGALDDAAVTEALELHKIKSRQWAIFKTCAVKGEGLFEGLDWLSNTLKSGSG [Y81G]	disrupting interaction
MGILFTRMFSSVFGNKEARILVLGLDNAGKTTILYRLQMGEVVSTIPTIGGNVETVQYNNIKFQVWDLGGQTSIRPYWRCYFPNTQAVIYVVDSSDTDRIGVAKEEFHAILEEDELKGAVVLIFANKQDLPGALDDAAVTEALELHKIKSRQWAIFKTCAVKGEGLFEGLDWLSNTLKSGSG [F51G]	disrupting interaction
